# Laboratory results as given in US20240010712A1 (published 2024).
# T1: M1 protein on the surface of Streptococcus pyogenes strain SF370 (Streptococcus pyogenes strain SF370 …)
# T1 chain: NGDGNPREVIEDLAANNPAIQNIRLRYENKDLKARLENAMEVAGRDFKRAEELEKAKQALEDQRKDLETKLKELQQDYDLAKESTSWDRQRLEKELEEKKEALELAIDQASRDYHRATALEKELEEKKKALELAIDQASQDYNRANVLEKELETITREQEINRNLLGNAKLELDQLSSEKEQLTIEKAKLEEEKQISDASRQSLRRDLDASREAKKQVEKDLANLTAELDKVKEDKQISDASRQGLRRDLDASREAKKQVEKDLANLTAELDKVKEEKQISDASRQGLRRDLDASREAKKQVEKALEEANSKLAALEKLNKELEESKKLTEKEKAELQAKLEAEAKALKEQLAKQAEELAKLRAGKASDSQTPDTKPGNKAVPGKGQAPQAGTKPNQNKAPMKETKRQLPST
# Assays:
# [1] = target: SF370 bacterial surface (Streptococcus pyogenes strain SF370 (emm1 serotype)); experiment: binding to SF370 bacteria, fitted binding curve; unit printed nM-1; ±261; non-specific control IgG (Fc binding)
# [2] = target: T1, M1 protein on the surface of …; experiment: binding to SF370 bacteria, fitted binding curve; unit printed nM-1; ±2.9; F(ab')2
# [3] = target: T1, M1 protein on the surface of …; experiment: binding to SF370 bacteria, fitted binding curve; unit printed nM-1; ±30.3; Fab
# [4] = target: T1, M1 protein on the surface of …; experiment: binding to SF370 bacteria, fitted binding curve; unit printed nM-1; ±1.2; F(ab')2
# [5] = target: T1, M1 protein on the surface of …; experiment: as above
molecule,measurement,setting,value
Xolair IgG,Kd,[1],3170 nM
"Ab32 F(ab')2 fragments (IdeS-cleaved Ab32) (antibody, V domains shown) VH: EVQLVESGGGLVRPGGSLRLSCVASGFMFNEYYMSWIRQAPGKGLEWISFISNAGTYTNYAESVKGRFTISRDNAKDSLYLEMNSLRGEDTAVYYCARQGFDTRGEDAFEIWGQGTMVTVSS VL: EIVLTQSPATLSLSPGERATLSCRASQPLSGYLAWYQQKPGQAPRLLIYNASKRATGIPARFTGSGSGTDFTLTISSLESEDFAVYYCQQRSGWPSIFTFGPGTKVDIKR",Kd,[2],9.1 nM
"Ab49 single Fabs (IgdE-cleaved Ab49) (Fab, V domains shown) VH: EVQLVESGGGLVQPGGSLRLSCAASGFTVSINYMSWVRQAPGKGLQWVSVIYSGGSTYYADSVKGRFTISRDNSKNTLYLQMNSLRAEDTAMYYCVRDSRFWGIFDYWGQGTLVTVSS VL: EIVLTQSPATLSLSPGERATLSCRASQSVSSYLAWYQRKPGQAPRLLIYDASNRATGIPARFSGSGSGTDFTLTISSLEPEDFAVYYCQQRSNWPPTFGQGTKVEIKR",Kd,[3],208 nM
"Ab49 F(ab')2 fragments (IdeS-cleaved Ab49) (antibody, V domains shown) VH: EVQLVESGGGLVQPGGSLRLSCAASGFTVSINYMSWVRQAPGKGLQWVSVIYSGGSTYYADSVKGRFTISRDNSKNTLYLQMNSLRAEDTAMYYCVRDSRFWGIFDYWGQGTLVTVSS VL: EIVLTQSPATLSLSPGERATLSCRASQSVSSYLAWYQRKPGQAPRLLIYDASNRATGIPARFSGSGSGTDFTLTISSLEPEDFAVYYCQQRSNWPPTFGQGTKVEIKR",Kd,[4],12.3 nM
same,Kd,[5],12.3 nM
